Assay results: US20140295512A1, “Ketol-Acid Reductoisomerases With Improved Performance Properties” (CALIFORNIA INSTITUTE OF TECHNOLOGY, priority 2011, published 2014)
Like-named read-outs stand apart in the source and are kept apart here.

Tests used:
[1] = KARI assay of purified S. exigua KARI and variants with NADPH (Examples 6-9); format: biochemical; conditions: for U/mg NADPH (specific activity): cofactor NADPH; for Km: read-out: Km for cofactor NADPH
Method: (§1) S. exigua KARI activity or activities of its variants were assayed kinetically by monitoring the decrease in NADPH or NADH concentration by measuring the change in absorbance at 340 nm. An assay buffer was prepared containing 100 mM potassium phosphate pH 7.0, 1 mM DTT, 2.5 mM (S)-2-acetolactate, and 10 mM MgCl2 (final concentrations in the 1-mL assay, accounting for dilution with enzyme and cofactor). Fifty μL purified enzyme and 930 μL of the assay buffer were placed into a 1-mL cuvette. The reaction was initiated by addition of 20 μL NADPH or NADH (200 μM final concentration) for a general activity assay. Michaelis-Menten constants of the cofactors were determined with varying concentrations of NADPH (200-12 μM final) or NADH (200-6 μM final).

[2] = KARI assay of purified S. exigua KARI and variants with NADH (Examples 6-9); format: biochemical; conditions: for U/mg NADH (specific activity): cofactor NADH; for Km: read-out: Km for cofactor NADH; for Ratio NADH/NADPH (U/mg): specific activity ratio
Method: as §1

Row | Molecule | kcat NADPH [1] | U/mg NADPH (specific activity) [1] | Km [1] | NADH KM value, fold increased versus wild-type [2] | kcat NADH [2] | kcat/Km ratio NADH/NADPH (cofactor specificity) [2] | U/mg NADH (specific activity) [2] | Km [2] | Ratio NADH/NADPH (U/mg) [2] | other results
1 | Se1_KARI^1AA10: S. exigua KARI variant S61C, S63D, I95T (protein, UniProt D0WGK0 1-342, looked up, variant S61C S63D I95T) Ketol-acid reductoisomerase …: MSVKTKEKEMAVTILYEQDVDPKVIQGLKVGIIGYGSQGHAHALNLMDSGVDVRVGLREGCSDWKTAEEAGLKVTDMDTAAEEADVIMVLVPDETQPKVYQEHIAAHLKAGNTLAFAHGFNIHYGYIVPPEDVNVIMCAPKGPGHIVRRQFTEGSGVPDLACVQQDATGNAWDIVLSYCWGVGGARSGIIKATFAEETEEDLFGEQAVLCGGLVELVKAGFETLTEAGYPPELAYFECYHEMKMIVDLMYESGIHFMNYSISNTAEYGEYYAGPKVINEQSREAMKEILKRIQDGSFAQEFVDDCNNGHKRLLEQREAINTHPIETTGAQIRSMFSWIKKED | 0.67 s⁻¹ | 0.27 U/mg | 367 µM | 1.3 fold | 0.8 s⁻¹ | 7.1 | 0.32 U/mg | 62 µM | 1.2 | NADPH KM value, fold increased versus wild-type/parent [1]: at least 367 fold; kcat with NADPH, fold decreased versus wild-type [1]: 1.2 fold; NADPH KM value, fold increased versus wild-type/parent ([1]; listed as Se1_KARI^1AA10-his6): > 367 fold; kcat with NADH, fold increase versus wild-type [2]: 2 fold; U/mg NADH (specific activity) ([2]; listed as 1AA10): 0.8 U/mg; kcat/Km ratio NADH/NADPH (cofactor specificity) ([2]; listed as Se1_KARI^1AA10-his6): 7
2 | S63R: Slackia KARI variant with residue S63 mutated to R (protein, UniProt D0WGK0 1-342, looked up, variant S63R) Ketol-acid reductoisomerase …: MSVKTKEKEMAVTILYEQDVDPKVIQGLKVGIIGYGSQGHAHALNLMDSGVDVRVGLREGSSRWKTAEEAGLKVTDMDTAAEEADVIMVLVPDEIQPKVYQEHIAAHLKAGNTLAFAHGFNIHYGYIVPPEDVNVIMCAPKGPGHIVRRQFTEGSGVPDLACVQQDATGNAWDIVLSYCWGVGGARSGIIKATFAEETEEDLFGEQAVLCGGLVELVKAGFETLTEAGYPPELAYFECYHEMKMIVDLMYESGIHFMNYSISNTAEYGEYYAGPKVINEQSREAMKEILKRIQDGSFAQEFVDDCNNGHKRLLEQREAINTHPIETTGAQIRSMFSWIKKED |  |  |  |  |  |  |  |  | 3.7 | 
3 | Se1_NKR^2E8-his6: S. exigua KARI variant R58P, S61C, S62P, S63D, I95T (protein, UniProt D0WGK0 1-342, looked up, variant R58P S61C S62P S63D I95T, His6 tag, S. exigua KARI variant R58P, S61C, S62P, S63D, I95T) Ketol-acid reductoisomerase …: MSVKTKEKEMAVTILYEQDVDPKVIQGLKVGIIGYGSQGHAHALNLMDSGVDVRVGLPEGCPDWKTAEEAGLKVTDMDTAAEEADVIMVLVPDETQPKVYQEHIAAHLKAGNTLAFAHGFNIHYGYIVPPEDVNVIMCAPKGPGHIVRRQFTEGSGVPDLACVQQDATGNAWDIVLSYCWGVGGARSGIIKATFAEETEEDLFGEQAVLCGGLVELVKAGFETLTEAGYPPELAYFECYHEMKMIVDLMYESGIHFMNYSISNTAEYGEYYAGPKVINEQSREAMKEILKRIQDGSFAQEFVDDCNNGHKRLLEQREAINTHPIETTGAQIRSMFSWIKKED | 0.1 s⁻¹ | 0.044 U/mg | > 1000 µM | 2 fold | 0.4 s⁻¹ | 46 | 0.16 U/mg | 87 µM | 3.6 | NADPH-dependent activity (in words) [1]: virtually abolished
4 | Se1_KARI^EE1-his6: S. exigua KARI variant L57R (protein, UniProt D0WGK0 1-342, looked up, variant L57R, His6 tag, S. exigua KARI variant L57R) Ketol-acid reductoisomerase …: MSVKTKEKEMAVTILYEQDVDPKVIQGLKVGIIGYGSQGHAHALNLMDSGVDVRVGRREGSSSWKTAEEAGLKVTDMDTAAEEADVIMVLVPDEIQPKVYQEHIAAHLKAGNTLAFAHGFNIHYGYIVPPEDVNVIMCAPKGPGHIVRRQFTEGSGVPDLACVQQDATGNAWDIVLSYCWGVGGARSGIIKATFAEETEEDLFGEQAVLCGGLVELVKAGFETLTEAGYPPELAYFECYHEMKMIVDLMYESGIHFMNYSISNTAEYGEYYAGPKVINEQSREAMKEILKRIQDGSFAQEFVDDCNNGHKRLLEQREAINTHPIETTGAQIRSMFSWIKKED |  | 0.04 U/mg |  |  |  |  | 0.06 U/mg |  | 1.58 | 
5 | Se1_NKR^10C2-his6: S. exigua KARI variant R58P, S61C, S62A, S63D, I95T (protein, UniProt D0WGK0 1-342, looked up, variant R58P S61C S62A S63D I95T, His6 tag, S. exigua KARI variant R58P, S61C, S62A, S63D, I95T) Ketol-acid reductoisomerase …: MSVKTKEKEMAVTILYEQDVDPKVIQGLKVGIIGYGSQGHAHALNLMDSGVDVRVGLPEGCADWKTAEEAGLKVTDMDTAAEEADVIMVLVPDETQPKVYQEHIAAHLKAGNTLAFAHGFNIHYGYIVPPEDVNVIMCAPKGPGHIVRRQFTEGSGVPDLACVQQDATGNAWDIVLSYCWGVGGARSGIIKATFAEETEEDLFGEQAVLCGGLVELVKAGFETLTEAGYPPELAYFECYHEMKMIVDLMYESGIHFMNYSISNTAEYGEYYAGPKVINEQSREAMKEILKRIQDGSFAQEFVDDCNNGHKRLLEQREAINTHPIETTGAQIRSMFSWIKKED | 0.08 s⁻¹ | 0.032 U/mg | > 1000 µM |  | 0.27 s⁻¹ | 14 | 0.11 U/mg | 250 µM | 3.4 | NADPH-dependent activity (in words) [1]: virtually abolished
6 | S631: Slackia KARI variant with residue S63 mutated (printed S631, probably S63I) (protein, UniProt D0WGK0 1-342, looked up, variant S63I) Ketol-acid reductoisomerase …: MSVKTKEKEMAVTILYEQDVDPKVIQGLKVGIIGYGSQGHAHALNLMDSGVDVRVGLREGSSIWKTAEEAGLKVTDMDTAAEEADVIMVLVPDEIQPKVYQEHIAAHLKAGNTLAFAHGFNIHYGYIVPPEDVNVIMCAPKGPGHIVRRQFTEGSGVPDLACVQQDATGNAWDIVLSYCWGVGGARSGIIKATFAEETEEDLFGEQAVLCGGLVELVKAGFETLTEAGYPPELAYFECYHEMKMIVDLMYESGIHFMNYSISNTAEYGEYYAGPKVINEQSREAMKEILKRIQDGSFAQEFVDDCNNGHKRLLEQREAINTHPIETTGAQIRSMFSWIKKED |  |  |  |  |  |  |  |  | 4 | 
7 | S63E: Slackia KARI variant with residue S63 mutated to E (protein, UniProt D0WGK0 1-342, looked up, variant S63E) Ketol-acid reductoisomerase …: MSVKTKEKEMAVTILYEQDVDPKVIQGLKVGIIGYGSQGHAHALNLMDSGVDVRVGLREGSSEWKTAEEAGLKVTDMDTAAEEADVIMVLVPDEIQPKVYQEHIAAHLKAGNTLAFAHGFNIHYGYIVPPEDVNVIMCAPKGPGHIVRRQFTEGSGVPDLACVQQDATGNAWDIVLSYCWGVGGARSGIIKATFAEETEEDLFGEQAVLCGGLVELVKAGFETLTEAGYPPELAYFECYHEMKMIVDLMYESGIHFMNYSISNTAEYGEYYAGPKVINEQSREAMKEILKRIQDGSFAQEFVDDCNNGHKRLLEQREAINTHPIETTGAQIRSMFSWIKKED |  |  |  |  |  |  |  |  | 9 | 
8 | S63H: Slackia KARI variant with residue S63 mutated to H (protein, UniProt D0WGK0 1-342, looked up, variant S63H) Ketol-acid reductoisomerase …: MSVKTKEKEMAVTILYEQDVDPKVIQGLKVGIIGYGSQGHAHALNLMDSGVDVRVGLREGSSHWKTAEEAGLKVTDMDTAAEEADVIMVLVPDEIQPKVYQEHIAAHLKAGNTLAFAHGFNIHYGYIVPPEDVNVIMCAPKGPGHIVRRQFTEGSGVPDLACVQQDATGNAWDIVLSYCWGVGGARSGIIKATFAEETEEDLFGEQAVLCGGLVELVKAGFETLTEAGYPPELAYFECYHEMKMIVDLMYESGIHFMNYSISNTAEYGEYYAGPKVINEQSREAMKEILKRIQDGSFAQEFVDDCNNGHKRLLEQREAINTHPIETTGAQIRSMFSWIKKED |  |  |  |  |  |  |  |  | 4 | 
9 | Se1_NKR^S61DS63D: S. exigua KARI double aspartic acid variant S61D, S63D (protein, UniProt D0WGK0 1-342, looked up, variant S61D S63D, His6 tag, S. exigua KARI double aspartic acid variant S61D, S63D) Ketol-acid reductoisomerase …: MSVKTKEKEMAVTILYEQDVDPKVIQGLKVGIIGYGSQGHAHALNLMDSGVDVRVGLREGDSDWKTAEEAGLKVTDMDTAAEEADVIMVLVPDEIQPKVYQEHIAAHLKAGNTLAFAHGFNIHYGYIVPPEDVNVIMCAPKGPGHIVRRQFTEGSGVPDLACVQQDATGNAWDIVLSYCWGVGGARSGIIKATFAEETEEDLFGEQAVLCGGLVELVKAGFETLTEAGYPPELAYFECYHEMKMIVDLMYESGIHFMNYSISNTAEYGEYYAGPKVINEQSREAMKEILKRIQDGSFAQEFVDDCNNGHKRLLEQREAINTHPIETTGAQIRSMFSWIKKED | 0.1 ± 0.01 s⁻¹ | 0.042 ± 0.005 U/mg | 880 ± 500 µM | 2.5 fold | 1 ± 0.13 s⁻¹ | 78 | 0.4 ± 0.05 U/mg | 113 ± 4 µM | 9.5 | NADPH KM value, fold increased versus wild-type/parent [1]: more than 800 fold; U/mg NADPH (specific activity) ([1]; listed as Se1_NKR^DD-his6): 0.04 ± 0.005 U/mg; kcat NADPH ([1]; listed as S61D/S63D): 0.1 s⁻¹; kcat NADPH ([1]; listed as Se1_NKR^DD-his6): 0.1 s⁻¹; kcat in presence of NADH, fold higher than in presence of NADPH [2]: 10 fold; kcat NADH ([2]; listed as S61D/S63D): 1 s⁻¹; kcat NADH ([2]; listed as Se1_NKR^DD-his6): 1 s⁻¹; kcat/Km ratio NADH/NADPH (cofactor specificity) ([2]; listed as Se1_NKR^DD-his6): 76
10 | S63M: Slackia KARI variant with residue S63 mutated to M (protein, UniProt D0WGK0 1-342, looked up, variant S63M) Ketol-acid reductoisomerase …: MSVKTKEKEMAVTILYEQDVDPKVIQGLKVGIIGYGSQGHAHALNLMDSGVDVRVGLREGSSMWKTAEEAGLKVTDMDTAAEEADVIMVLVPDEIQPKVYQEHIAAHLKAGNTLAFAHGFNIHYGYIVPPEDVNVIMCAPKGPGHIVRRQFTEGSGVPDLACVQQDATGNAWDIVLSYCWGVGGARSGIIKATFAEETEEDLFGEQAVLCGGLVELVKAGFETLTEAGYPPELAYFECYHEMKMIVDLMYESGIHFMNYSISNTAEYGEYYAGPKVINEQSREAMKEILKRIQDGSFAQEFVDDCNNGHKRLLEQREAINTHPIETTGAQIRSMFSWIKKED |  |  |  |  |  |  |  |  | 4 | 
